Experiments:
[1] = biological target: CALR del52 (human calreticulin mutant L367fs*46), full length, no tag stated (human); assay: flow cytometry on living Ba/F3 cells with human TPOR and CALR mutant after adding the Fc fusion to the medium; concentration not given
[2] = biological target: the molecule itself; assay: native gel with or without DTT (self-association)
[3] = biological target: T1, TpoR D1D2 (sD1D2) with immature glycans, produced with CALR del52 in Drosophila S2 (Schneider) cells (human, UniProt P40238 26-283, limits assumed, immature glycans (Asn117)); assay: complex co-produced in S2 cells, size-exclusion chromatography, HDx-MS
T1 construct: Purified as a complex with CALR del52 for HDx-MS; also called immature TpoR
T1 sequence: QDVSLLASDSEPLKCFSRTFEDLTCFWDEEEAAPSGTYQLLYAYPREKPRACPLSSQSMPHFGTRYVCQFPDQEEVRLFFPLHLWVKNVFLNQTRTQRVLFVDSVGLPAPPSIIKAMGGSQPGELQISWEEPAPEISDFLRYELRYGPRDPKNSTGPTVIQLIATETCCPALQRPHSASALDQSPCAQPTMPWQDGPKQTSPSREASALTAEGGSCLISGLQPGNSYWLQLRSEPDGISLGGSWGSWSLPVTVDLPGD
From the text: All peptides were visually validated based on retention time, drift time and isotopic m/z. Data was statistically analyzed using Deuteros 2.0 with peptide-level significance testing (Lau et al., 2021).
Subsequently, CALR del52-D1D2 produced as a complex in Schneider cells was purified. Briefly, the extracellular domain of the human TpoR and human CALR mutant del52 produced in Drosophila S2 cells (Thermo Fisher Scientific) were fractionated by using size-exclusion chromatography by loading on a Superdex 200 Increase 10/300 column (GE Healthcare). Elution was performed at 0.5 mL/min with buffer TNG (Tris-NaCl-glycerol) pH 7.5, and 0.5 mL fractions were collected and analyzed by sodium dodecyl sulfate-polyacrylamide gel electrophoresis and western blot. Fraction proteins were immunoprecipitated with anti-His5 antibody (Qiagen) and treated with Endoglycosidase-H (NEB) or N-glycosidase F (NEB). HDx-MS was used to detect all interaction sites between CALR del52 and TpoR D1D2 (sD1D2) produced in the same cells. […] Importantly, this region was not involved in binding of mature TpoR as shown above, confirming that it is specifically involved in interaction with immature glycans. […]

[4] = biological target: T2, recombinant complete extracellular domain of TpoR with mature glycans (human, UniProt P40238 26-490, mature glycans); assay: HDx-MS of mature TpoR ECD alone or with CALR del52
T2 construct: Purified recombinant protein used in HDx-MS; also called TpoR ECD; D1D2D3D4
T2 sequence: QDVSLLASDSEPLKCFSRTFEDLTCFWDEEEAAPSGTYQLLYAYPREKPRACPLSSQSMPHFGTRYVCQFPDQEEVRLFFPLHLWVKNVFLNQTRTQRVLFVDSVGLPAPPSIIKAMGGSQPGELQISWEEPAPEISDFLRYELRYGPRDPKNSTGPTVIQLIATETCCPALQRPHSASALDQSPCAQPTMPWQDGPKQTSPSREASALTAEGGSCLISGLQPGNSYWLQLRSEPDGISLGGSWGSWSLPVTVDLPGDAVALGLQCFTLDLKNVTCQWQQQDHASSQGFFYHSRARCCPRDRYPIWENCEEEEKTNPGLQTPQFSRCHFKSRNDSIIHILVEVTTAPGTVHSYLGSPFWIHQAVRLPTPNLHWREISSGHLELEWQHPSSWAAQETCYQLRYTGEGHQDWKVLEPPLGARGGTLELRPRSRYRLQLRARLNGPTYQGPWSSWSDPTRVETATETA
Description: Hydrogen-Deuterium Exchange Mass Spectrometry (HDx-MS): Hydrogen-Deuterium Exchange Mass Spectrometry was performed with a Waters nanoAcquity UPLC with HDx technology coupled with Synapt G2-Si. All purified recombinant proteins were used at 20 μM concentration in equilibration buffer (5 mM K2HPO4, 5 mM KH2PO4 dissolved in H2O, pH 7). For interaction analysis between recombinant mature D1D2D3D4 and CALR del52, proteins were first mixed together at a 1:1 molarity for 30 minutes at room temperature followed by 3 hours at 4° C. Proteins were then kept at 0° C. Labelling was performed with a 20-fold dilution of samples in labelling buffer (5 mM K2HPO4, 5 mM KH2PO4 dissolved in D20, pD 7) for 6 different incubation times (0, 0.25, 1, 5, 20 and 60 minutes) at 20° C. After incubation, the reaction was quenched using a 1:1 dilution in the quench buffer (0.05 M K2HPO4, 0.05 M KH2PO4 with 30 mM TCEP, pH 2.3) prior to injection into a pepsin column (Enzymate BEH Pepsin 2.1×30 Column, Waters CAT. 186007233) with dynamic flowrate of 150-75 μL/min. […] The peptides identified were further analyzed with DynamX 3.0 (Waters) using a tolerance of 10 ppm, a maximum length of 35 a.a., a minimum products per amino acid of 0.2 and requiring that each peptide was identified in 3 out of 3 replicates. […] Data was statistically analyzed using Deuteros 2.0 with peptide-level significance testing (Lau et al., 2021). […]

[5] = biological target: the molecule itself; assay: native gel of CALR species with or without DTT (self-association)

Molecule: D1-Fc (TPOR D1 domain fused through its C-terminus to an Fc fragment) (from UniProt P40238 26-121) (Fc fusion)
- reduction of the level of CALR mutant at the cell surface [1]: > 50%

B1: CALR del52 (human calreticulin mutant L367fs*46), full length, no tag stated (other)
chain: EPAVYFKEQFLDGDGWTSRWIESKHKSDFGKFVLSSGKFYGDEEKDKGLQTSQDARFYALSASFEPFSNKGQTLVVQFTVKHEQNIDCGGGYVKLFPNSLDQTDMHGDSEYNIMFGPDICGPGTKKVHVIFNYKGKNVLINKDIRCKDDEFTHLYTLIVRPDNTYEVKIDNSQVESGSLEDDWDFLPPKKIKDPDASKPEDWDERAKIDDPTDSKPEDWDKPEHIPDPDAKKPEDWDEEMDGEWEPPVIQNPEYKGEWKPRQIDNPDYKGTWIHPEIDNPEYSPDPSIYAYDNFGVLGLDLWQVKSGTIFDNFLITNDEAYAEEFGNETWGVTKAAEKQMKDKQDEEQRTRRMMRTKMRMRRMRRTRRKMRRKMSPARPRTSCREACLQGWTEA
notes: also called CALR mutant; mutant CALR
- binding result [2]: binds
- binding result [3]: binds
- binding result [4]: binds

B2: CALR Δc-tail (other)
chain: EPAVYFKEQFLDGDGWTSRWIESKHKSDFGKFVLSSGKFYGDEEKDKGLQTSQDARFYALSASFEPFSNKGQTLVVQFTVKHEQNIDCGGGYVKLFPNSLDQTDMHGDSEYNIMFGPDICGPGTKKVHVIFNYKGKNVLINKDIRCKDDEFTHLYTLIVRPDNTYEVKIDNSQVESGSLEDDWDFLPPKKIKDPDASKPEDWDERAKIDDPTDSKPEDWDKPEHIPDPDAKKPEDWDEEMDGEWEPPVIQNPEYKGEWKPRQIDNPDYKGTWIHPEIDNPEYSPDPSIYAYDNFGVLGLDLWQVKSGTIFDNFLITNDEAYAEEFGNETWGVTKAAEKQMKDKQDEEQR
notes: the C-tail is absent
- binding result [5]: no binding
